Test results published in patent publication US20130266574A1 (Regeneron, published 2013).
Like-named read-outs stand apart in the source and are kept apart here.

T1: bovine LPL (bovine, UniProt P11151 29-478)
T1 sequence (looked up): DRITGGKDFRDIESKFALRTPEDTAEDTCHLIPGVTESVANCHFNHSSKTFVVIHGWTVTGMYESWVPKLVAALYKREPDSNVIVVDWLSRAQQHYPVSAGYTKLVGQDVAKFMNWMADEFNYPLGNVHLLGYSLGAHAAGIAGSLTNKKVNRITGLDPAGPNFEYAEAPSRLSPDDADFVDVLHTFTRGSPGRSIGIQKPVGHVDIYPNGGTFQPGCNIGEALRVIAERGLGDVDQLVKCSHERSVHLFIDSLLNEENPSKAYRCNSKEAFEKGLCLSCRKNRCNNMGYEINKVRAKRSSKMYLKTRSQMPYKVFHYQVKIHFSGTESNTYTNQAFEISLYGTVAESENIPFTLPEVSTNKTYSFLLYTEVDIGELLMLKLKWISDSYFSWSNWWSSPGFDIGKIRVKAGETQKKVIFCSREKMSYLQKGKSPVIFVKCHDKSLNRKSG

T2: cynomolgus monkey ANGPTL4 N-terminal region (amino acid residues 1-130 of SEQ ID NO:490) with a C-terminal … (cynomolgus monkey (Macaca fascicularis), UniProt Q9BY76 26-130 (human entry))
T2 construct: also called MfANGPTL4(1-130)-His
T2 chain: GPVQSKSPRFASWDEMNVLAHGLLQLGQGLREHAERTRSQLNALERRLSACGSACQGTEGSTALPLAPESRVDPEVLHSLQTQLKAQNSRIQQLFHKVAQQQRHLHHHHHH

B1: mANGPTL4-His [R26-S410 of mANGPTL4 (SEQ ID NO: 478) fused with an AS linker to a C-terminal 6-histidine tag] (ligand)
chain: RPAQPEPPRFASWDEMNLLAHGLLQLGHGLREHVERTRGQLGALERRMAACGNACQGPKGKDAPFKDSEDRVPEGQTPETLQSLQTQLKAQNSKIQQLFQKVAQQQRYLSKQNLRIQNLQSQIDLLAPTHLDNGVDKTSRGKRLPKMTQLIGLTPNATHLHRPPRDCQELFQEGERHSGLFQIQPLGSPPFLVNCEMTSDGGWTVIQRRLNGSVDFNQSWEAYKDGFGDPQGEFWLGLEKMHSITGNRGSQLAVQLQDWDGNAKLLQFPIHLGGEDTAYSLQLTEPTANELGATNVSPNGLSLPFSTWDQDHDLRGDLNCAKSLSGGWWFGTCSHSNLNGQYFHSIPRQRQERKKGIFWKTWKGRYYPLQATTLLIQPMEATAASASHHHHHH
B2: amino acid residues 26-148 of human ANGPTL4 fused in-line to mouse IgG2a (hANGPTL4-mFc) (Fc fusion)
chain: GPVQSKSPRFASWDEMNVLAHGLLQLGQGLREHAERTRSQLSALERRLSACGSACQGTEGSTDLPLAPESRVDPEVLHSLQTQLKAQNSRIQQLFHKVAQQQRHLEKQHLRIQHLQSQFGLLDPGSLEFALERNSGEPRGPTIKPCPPCKCPAPNLLGGPSVFIFPPKIKDVLMISLSPIVTCVVVDVSEDDPDVQISWFVNNVEVHTAQTQTHREDYNSTLRVVSALPIQHQDWMSGKEFKCKVNNKDLPAPIERTISKPKGSVRAPQVYVLPPPEEEMTKKQVTLTCMVTDFMPEDIYVEWTNNGKTELNYKNTEPVLDSDGSYFMYSKLRVEKKNWVERNSYSCSVVHEGLHNHHTTKSFSRTPGK
B3: H1H268P Fab fragment (Fab, V domains shown)
VH: QVQLQESGAGLLKPSETLSLTCTVYGGSFSIHHWTWIRHPPGKGLEWIGEINHRGSTNYNPSLKSRVTISIDTSKNQFSLKLSAVTAADTAVYYCARGLRFLDWLSSYFDYWGQGTLVTVSS
VL: DIQMTQSPSSLSASVGDRVTITCRASQGISDYLAWYQQKPGKVPNLLIYAASALQSGVPSRFSGSGSGTDFTLTISSLQPEDVATYYCQNYNTAPLTFGGGTKVEIK
notes: Fab made by papain digestion of H1H268P (IgG1); also called H1H268 Fab
B4: H1H284P Fab fragment (Fab, V domains shown)
VH: QVQLVESGGGVVQPGRSLRLSCAASGFTFSSYGMHWVRQAPGKGLEWMAVISFDGGNKNNADSVKGRFTISRDNSKNTLYLQMNSLRAEDTAVYYCAKEGDRSGHPYFYYYGLDVWGQGTTVTVS
VL: DIQLTQSPSFLSASVGDRVTITCWASQGISSYLAWYQQKPGKAPKLLIYAASTLQSGVPSRFSGSGSETEFTLTISSLQPEDFATYYCQQLHSYPLTFGGGTKVEIK
notes: Fab made by papain digestion of H1H284P (IgG1); also called H1H284 Fab
B5: full-length hANGPTL4 (amino acid residues 26-406 of SEQ ID NO:476) with a C-terminal hexa-histidine tag (ligand)
chain: GPVQSKSPRFASWDEMNVLAHGLLQLGQGLREHAERTRSQLSALERRLSACGSACQGTEGSTDLPLAPESRVDPEVLHSLQTQLKAQNSRIQQLFHKVAQQQRHLEKQHLRIQHLQSQFGLLDHKHLDHEVAKPARRKRLPEMAQPVDPAHNVSRLHRLPRDCQELFQVGERQSGLFEIQPQGSPPFLVNCKMTSDGGWTVIQRRHDGSVDFNRPWEAYKAGFGDPHGEFWLGLEKVHSITGDRNSRLAVQLRDWDGNAELLQFSVHLGGEDTAYSLQLTAPVAGQLGATTVPPSGLSVPFSTWDQDHDLRRDKNCAKSLSGGWWFGTCSHSNLNGQYFRSIPQQRQKLKKGIFWKTWRGRYYPLQATTMLIQPMAAEAASHHHHHH

What was measured:
bovine LPL [1] = target: T1, bovine LPL; assay: cell-based or functional assay
bovine LPL [2] = target: T1, bovine LPL; assay: cell-based or functional assay; remark: listed apart in the source
bovine LPL [3] = target: T1, bovine LPL; assay: cell-based or functional assay; remark: listed apart in the source
[4] = target: B5; assay: SPR (Biacore), 25° C., pH 7.2, antigen amino-coupled 450 RU
Description: (§1) Kinetic analysis was performed to measure kₐ and kd, and KD values and half-life of antigen/antibody complex dissociation were calculated. The results are shown in Table 4 (H1H268P) and Table 5 (H1H284P).

[5] = target: B2; assay: SPR (Biacore), 25° C., pH 7.2, antigen captured by anti-mFc
Description: as §1

[6] = target: B5; assay: SPR (Biacore), 25° C., pH 5.75, antigen amino-coupled 450 RU
Description: as §1

[7] = target: B2; assay: SPR (Biacore), 25° C., pH 5.75, antigen captured by anti-mFc
Description: as §1

[8] = target: T2, cynomolgus monkey ANGPTL4 N-terminal …; assay: SPR (Biacore), 25° C., pH 7.2, antigen amino-coupled 1,028 RU
Description: as §1

[9] = target: T2, cynomolgus monkey ANGPTL4 N-terminal …; assay: SPR (Biacore), 25° C., pH 5.75, antigen amino-coupled 1,028 RU
Description: as §1

[10] = target: T2, cynomolgus monkey ANGPTL4 N-terminal …; assay: SPR (Biacore), 25° C., pH 5.75, antigen amino-coupled 1,028 RU; Fab, not full mAb; pH 5.75
Description: as §1

Row | EC50 (nM) of the ANGPTL4 protein in the LPL assay (bovine LPL [2]) [nM] | EC50 (nM) of the ANGPTL4 protein in the LPL inhibition assay (bovine LPL [3]) [nM] | Kd [4] [nM] | koff [4] [s⁻¹] | kon [4] [M⁻¹ s⁻¹] | t1/2 [4] [min] | Kd [5] [nM] | koff [5] [s⁻¹] | kon [5] [M⁻¹ s⁻¹] | t1/2 [5] [min] | Kd [6] [nM] | koff [6] [s⁻¹] | kon [6] [M⁻¹ s⁻¹] | t1/2 [6] [min] | Kd [7] [nM] | koff [7] [s⁻¹] | kon [7] [M⁻¹ s⁻¹] | t1/2 [7] [min] | Kd [8] [nM] | koff [8] [s⁻¹] | Molecule | also measured
1 |  |  |  |  |  |  |  |  |  |  |  |  |  |  |  |  |  |  |  |  | cynomolgus monkey ANGPTL4 N-terminal region (amino acid residues 26-148) with an N-terminal hexa-histidine tag (from UniProt Q9BY76 26-148) (ligand) | EC50 (nM) of the ANGPTL4 protein in the LPL assay (bovine LPL [1]): 3.89 nM
2 | 0.63 |  |  |  |  |  |  |  |  |  |  |  |  |  |  |  |  |  |  |  | B1 | 
3 | 0.5 | 0.29 |  |  |  |  |  |  |  |  |  |  |  |  |  |  |  |  |  |  | B2 | 
4 |  |  | 16.3 | 0.0118 | 726000 | 1 | 2 | 0.000601 | 300000 | 19 | 14.8 | 0.00657 | 444000 | 2 | 17.5 | 0.00304 | 174000 | 4 | 6.42 | 0.00171 | B3 | kon [8]: 267000 M⁻¹ s⁻¹; t1/2 [8]: 7 min; koff [9]: 0.00432 s⁻¹; kon [9]: 312000 M⁻¹ s⁻¹; t1/2 [9]: 3 min; Kd [10]: 13.8 nM
5 |  |  | 0.31 | 0.000344 | 1.11e+06 | 34 | 0.823 | 0.000202 | 245000 | 57 | 1.44 | 0.00173 | 1.21e+06 | 7 | 3.4 | 0.0016 | 472000 | 7 | 10.1 | 0.00313 | B4 | kon [8]: 310000 M⁻¹ s⁻¹; t1/2 [8]: 4 min; koff [9]: 0.00619 s⁻¹; kon [9]: 724000 M⁻¹ s⁻¹; t1/2 [9]: 2 min; Kd [10]: 8.54 nM
6 | 6 | 4.54 |  |  |  |  |  |  |  |  |  |  |  |  |  |  |  |  |  |  | B5 | 
